According to patent publication US20240262915A1 (NANJING SANHOME PHARMACEUTICAL, published 2024):

T1: full-length TIGIT on hTIGIT-CHO-K1 cells (human, UniProt Q495A1 22-244)
T1 construct: CHO-K1 cells stably transfected with pTargeT-TIGIT; also called TIGIT on cell surface
T1 sequence: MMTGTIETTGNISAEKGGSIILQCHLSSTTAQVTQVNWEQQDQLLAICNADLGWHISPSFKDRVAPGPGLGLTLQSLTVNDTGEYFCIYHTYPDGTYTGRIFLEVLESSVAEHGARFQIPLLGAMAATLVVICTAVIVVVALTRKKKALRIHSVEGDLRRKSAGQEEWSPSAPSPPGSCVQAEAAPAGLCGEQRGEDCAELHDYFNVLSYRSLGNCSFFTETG

T2: Human TIGIT-His protein (Sino Biological, 10917-H08H) (human, UniProt Q495A1 22-141)
T2 sequence (looked up): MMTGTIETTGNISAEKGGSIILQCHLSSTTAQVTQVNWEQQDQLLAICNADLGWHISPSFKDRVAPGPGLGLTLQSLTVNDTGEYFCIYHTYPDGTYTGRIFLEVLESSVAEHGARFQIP

T3: TIGIT-his (extracellular region of human TIGIT protein fused with his) (human, UniProt Q495A1 22-141)
T3 construct: also called antigen TIGIT-his
T3 sequence: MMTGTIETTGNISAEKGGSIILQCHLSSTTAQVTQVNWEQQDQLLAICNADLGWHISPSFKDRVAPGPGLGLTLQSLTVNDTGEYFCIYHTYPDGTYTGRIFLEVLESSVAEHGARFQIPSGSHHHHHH

T4: TIGIT-mFc (extracellular region of human TIGIT with mIgG1-Fc tag) (human)
T4 construct: A bought TIGIT-mFc (Acro Biosystems TIT-H5253) is used for immunization; also called recombinant humanized TIGIT-mFc
T4 chain: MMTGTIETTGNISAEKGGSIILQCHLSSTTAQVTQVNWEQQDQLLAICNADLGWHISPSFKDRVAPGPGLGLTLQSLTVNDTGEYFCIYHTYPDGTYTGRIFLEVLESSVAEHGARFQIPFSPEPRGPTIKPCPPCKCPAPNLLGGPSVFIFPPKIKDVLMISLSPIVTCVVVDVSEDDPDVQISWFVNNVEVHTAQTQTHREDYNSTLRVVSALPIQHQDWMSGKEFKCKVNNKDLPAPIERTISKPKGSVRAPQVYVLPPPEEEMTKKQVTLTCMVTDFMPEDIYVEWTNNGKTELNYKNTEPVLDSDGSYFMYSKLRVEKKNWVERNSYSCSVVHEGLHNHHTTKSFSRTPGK

T5: TIGIT on TIGIT/NFAT-reporter-Jurkat cells (UniProt Q495A1 22-244, limits assumed)
T5 sequence (looked up): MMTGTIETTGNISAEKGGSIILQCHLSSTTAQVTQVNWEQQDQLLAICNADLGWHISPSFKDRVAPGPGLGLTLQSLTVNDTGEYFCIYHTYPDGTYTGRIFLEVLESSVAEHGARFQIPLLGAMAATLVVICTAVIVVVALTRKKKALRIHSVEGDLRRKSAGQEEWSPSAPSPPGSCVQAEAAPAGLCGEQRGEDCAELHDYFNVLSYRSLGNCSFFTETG


What was measured:
[1] = biological target: T1, full-length TIGIT on hTIGIT-CHO-K1 cells; test: FACS on hTIGIT-CHO-K1 cells
[2] = biological target: T2, Human TIGIT-His protein (Sino …); test: ELISA, human TIGIT-His coated
[3] = biological target: T3, TIGIT-his (extracellular region of …); test: BLI, Fortebio Octet RED96, SA sensor
[4] = biological target: T4, TIGIT-mFc (extracellular region of …); test: ELISA, blocking of TIGIT-mFc binding to coated CD155-hFc (competitor CD155-hFc)
PD-L1-his = biological target: T6, PD-L1-his (human, UniProt Q9NZQ7 19-238, limits assumed); test: BLI, Fortebio Octet RED96, antibody on AHC sensor, PD-L1-his in solution
T6 construct: also called human PD-L1 protein
T6 sequence (Q9NZQ7 19-238 limits assumed): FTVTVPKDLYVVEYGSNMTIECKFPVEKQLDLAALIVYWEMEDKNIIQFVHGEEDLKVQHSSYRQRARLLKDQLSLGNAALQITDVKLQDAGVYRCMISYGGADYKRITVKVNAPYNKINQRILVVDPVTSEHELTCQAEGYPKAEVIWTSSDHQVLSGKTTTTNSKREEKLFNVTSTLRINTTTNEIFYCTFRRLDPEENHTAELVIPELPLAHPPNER

[5] = biological target: T5, TIGIT on TIGIT/NFAT-reporter-Jurkat …; test: cell-based or functional assay
[6] = biological target: T3, TIGIT-his (extracellular region of …); test: BLI, Fortebio Octet RED96, antibody on AHC sensor, TIGIT-his in solution
[7] = biological target: T7, human PD-L1 on hPD-L1-CHO-K1 cells (human, UniProt Q9NZQ7 19-290); test: FACS on hPD-L1-CHO-K1 cells
T7 construct: whole, on cells; The making of this cell line is not described
T7 sequence (Q9NZQ7 19-290): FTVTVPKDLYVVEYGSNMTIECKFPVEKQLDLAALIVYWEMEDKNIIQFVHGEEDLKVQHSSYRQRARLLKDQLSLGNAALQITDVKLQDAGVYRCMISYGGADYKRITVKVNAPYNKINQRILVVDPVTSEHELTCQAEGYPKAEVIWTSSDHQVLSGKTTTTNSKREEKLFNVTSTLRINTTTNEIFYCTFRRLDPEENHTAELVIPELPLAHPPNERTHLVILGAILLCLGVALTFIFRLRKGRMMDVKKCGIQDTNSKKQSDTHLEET

[8] = biological target: T4, TIGIT-mFc (extracellular region of …); test: FACS, blocking of TIGIT-mFc binding to cells (TIGIT/CD155; cells printed as hTIGIT-CHO-K1)

Row | Binder | EC50 [1] [nM] | EC50 [2] [nM] | Kd [3] [nM] | koff [3] [s⁻¹] | kon [3] [M⁻¹ s⁻¹] | IC50 [4] [nM] | Kd (PD-L1-his) [nM] | koff (PD-L1-his) [s⁻¹] | kon (PD-L1-his) [M⁻¹ s⁻¹] | EC50 (nM), luciferase expression induced by anti-TIGIT antibody [5] [nM] | Top (fold), luciferase expression induced by anti-TIGIT antibody [5] [fold] | Kd [6] [nM] | koff [6] [s⁻¹] | kon [6] [M⁻¹ s⁻¹] | EC50 [7] [nM] | IC50 [8] [nM]
1 | SHS006-T-Hu17-31 (antibody, IgG4, V domains shown, Humanized) VH: QVTLKESGPVLVKPTETLTLTCTFSGFSLRTYGLGVGWIRQPPGKALEWLANIWWDDDEYYNPSLKNRLTISKDTSKSQAVLTMTNMDPVDTATYYCARIARPHYYWDGRYILDVWGQGTTVTVSS VL: DIVMTQSPLSLPVTPGEPASISCRSSKSLLHSNGITYLSWYLQKPGQSPQLLIYQISNLASGVPDRFSGSGSGTDFTLKISRVEAEDVGVYYCMQFLEVPYTFGQGTKLEIK | 0.303 | 1.59 | 0.327 | 0.000239 | 731000 | 0.954 | – | – | – | – | – | – | – | – | – | –
2 | HuPL16-42 (antibody, IgG4, V domains shown, also called humanized anti-PD-L1 antibody HuPL16-42) VH: QVQLVQSGAEVAKPGASVKMSCKASGYTFTRNTMHWIKQAPGQRLEWIGFIDPHNTYTRYNQKFKDRATLTADTSASTAYMELSSLRSEDTAVYYCARWPMDYWGQGTLVTVSS VL: DIVMTQSPDSLAVSLGERVTMRCKSSQSLSWSENQNNYLSWYQQKPGQPPKLLIYGASIRESGVPDRFSGSGSGTDFTLTISSVQAEDVGVYYCQHNHGSFLPYTFGQGTKLEIK | – | – | – | – | – | – | 1.9 | 0.000225 | 119000 | – | – | – | – | – | – | –
3 | HuPL1642-T2353-ScFv (bispecific antibody, human IgG4 S228P, kappa, Symmetrical structure: PL1642-T2353-scFv-HC and HuPL1642-VL2) heavy: not shown light: DIVMTQSPDSLAVSLGERVTMRCKSSQSLSWSENQNNYLSWYQQKPGQPPKLLIYGASIRESGVPDRFSGSGSGTDFTLTISSVQAEDVGVYYCQHNHGSFLPYTFGQGTKLEIKRTVAAPSVFIFPPSDEQLKSGTASVVCLLNNFYPREAKVQWKVDNALQSGNSQESVTEQDSKDSTYSLSSTLTLSKADYEKHKVYACEVTHQGLSSPVTKSFNRGEC | – | – | – | – | – | – | 2.08 | 0.000326 | 157000 | – | – | 2.74 | 0.00239 | 872000 | 0.955 | 1.68

Further lines, results first:

Row | EC50 [1] [nM] | EC50 [2] [nM] | Kd [3] [nM] | koff [3] [s⁻¹] | kon [3] [M⁻¹ s⁻¹] | IC50 [4] [nM] | Kd (PD-L1-his) [nM] | koff (PD-L1-his) [s⁻¹] | kon (PD-L1-his) [M⁻¹ s⁻¹] | EC50 (nM), luciferase expression induced by anti-TIGIT antibody [5] [nM] | Top (fold), luciferase expression induced by anti-TIGIT antibody [5] [fold] | Kd [6] [nM] | koff [6] [s⁻¹] | kon [6] [M⁻¹ s⁻¹] | EC50 [7] [nM] | IC50 [8] [nM] | Binder
4 | 0.411 | – | – | – | – | 1.34 | – | – | – | 0.104 | 1.59 | – | – | – | – | – | humanized antibody 22G2 (antibody, IgG4, V domains shown, Expressed from pHR-22G2-hG4 (IgG4 heavy chain) and pHR-22G2-hk (light chain); from US 2016/0176963A1; also called positive control antibody) VH: QVQLQESGPGLVKPSETLSLTCTVSGGSVSSGIYYWSWIRQPPGKGLEWIGYIYYSGSTNYNPSLKSRVTISVDTSKNQFSLKLSSVTAADTAVYYCARDYYVSGNYYNVDYYFFGVDVWGQGTTVTVSS VL: EIVLTQSPATLSLSPGERATLSCRASQSVSSYLAWYQQKPGQAPRLLIYDASNRATGIPARFSGSGSGTDFTLTISSLEPEDFAVYYCQQRSNWPPLFTFGPGTKVDIK
5 | 0.199 | 2.43 | 1.14 | 0.00151 | 1.33e+06 | 1.01 | – | – | – | – | – | 2.43 | 0.00192 | 792000 | – | – | SHS006-T-Hu23-53 (antibody, IgG4, V domains shown, Humanized; also called SHS006-HuT23-53; HuT23-53) VH: EVQLVESGGGLVQPGGSLRLSCAASGFTFSDHWMSWVRQAPGKTMEWIGNIQYDGSYTNYAPSLKNRFTISRDNAKNSLYLQMNSLRAEDTATYYCTRGHFRITMASMGASASVYWGQGTMVTVSS VL: DIQMTQSPSSLSASVGDRVTITCRTSQDIGNSLRWFQQKPGKAPKLLIHGATNLANGVPSRFSGSGSGTDFTLTISSLQPEDFATYYCLQHNEYPLTFGQGTKLEIK
